Assay results reported in patent US9409976B2, “CDIM binding proteins and uses thereof” (IGM BIOSCIENCES, INC., priority 2012, dated 2016).
Entries after “also recorded” stand apart in the source; their conditions may differ.

Legend:
ds DNA = experiment: ELISA binding to non-CDIM antigen dsDNA; conditions: maximal reaction (OD450 nm), IgM at 10 μg/ml
Experimental: (§1) This example describes the binding specificity of the CDIM binding proteins for antigens other than CDIM. The antibodies were purified by affinity chromatography. Antibodies were tested across a broad dose range against a panel of antigens available in commercially available ELISA kits. ELISA plates pre-coated with the antigens, ssDNA (Inova Diagnostics, Inc, San Diego, Calif.), dsDNA (Inova Diagnostics, Inc., San Diego, Calif.), cardiolipin (Inova Diagnostics, Inc., San Diego, Calif.) MDA-LDL (malondialdehyde modified low density lipoprotein) (Rocky Mountain Diagnostics, Colorado Springs, Colo.) were purchased from various vendors. Lipid A (Avanti Polar Lipids, Alabaster, Ala.) was purchased as an antigen, dissolved in ethanol and diluted in 100 mM Na carbonate buffer at pH 9.5 prior to coating onto ELISA plates. Anti-CDIM antibodies were used at concentrations indicated and ELISA was performed according to manufacturers recommendations. Briefly, plates were blocked with BSA-milk powder for 1 hour, followed by washing. The disclosed antibodies were added at the concentrations indicated. The antibodies were allowed to bind for 1.5 hours at room temperature followed by a wash step. The HRP-conjugated anti-human IgM antibody was added, followed by substrate addition. Results were quantified using absorbance at 450 nm (Bio-Tek Synergy HT). […]

[1] = ELISA binding to panel of antigens other than CDIM (FIGS. 8 and 9); conditions: broad dose range, absorbance at 450 nm, listed as MAb 216
From the text: FIG. 8, panels A-E depict ELISA based binding data that is representative of the CDIM binding proteins to antigens other than CDIM. Results using the antigens single stranded DNA (ssDNA), double stranded DNA (dsDNA), lipid A, cardiolipin, and maleonaldehyde LDL (MDA-LDL) are shown in panels A-E, respectively.
FIG. 9, panels A-F depict ELISA based binding data that is representative of the CDIM binding proteins to antigens other than CDIM. Results using the antigens single stranded DNA (ssDNA), double stranded DNA (dsDNA), lipopolysaccharide, cardiolipin, chondoitrin and heparan, are shown in panels A-F, respectively.
This example describes the binding specificity of the CDIM binding proteins for antigens other than CDIM. The antibodies were purified by affinity chromatography. Antibodies were tested across a broad dose range against a panel of antigens available in commercially available ELISA kits. ELISA plates pre-coated with the antigens, ssDNA (Inova Diagnostics, Inc, San Diego, Calif.), dsDNA (Inova Diagnostics, Inc., San Diego, Calif.), cardiolipin (Inova Diagnostics, Inc., San Diego, Calif.) MDA-LDL (malondialdehyde modified low density lipoprotein) (Rocky Mountain Diagnostics, Colorado Springs, Colo.) were purchased from various vendors. […] Results were quantified using absorbance at 450 nm (Bio-Tek Synergy HT).

ss DNA = experiment: ELISA binding to non-CDIM antigen ssDNA; conditions: maximal reaction (OD450 nm), IgM at 10 μg/ml
Experimental: as §1

[2] = ELISA binding to non-CDIM antigen chondroitin sulfate; conditions: maximal reaction (OD450 nm), IgM at 10 μg/ml
[3] = ELISA binding to non-CDIM antigen heparan sulfate; conditions: maximal reaction (OD450 nm), IgM at 10 μg/ml
Experimental: as §1

[4] = ELISA binding to non-CDIM antigen cardiolipin; conditions: maximal reaction (OD450 nm), IgM at 10 μg/ml
Experimental: as §1

[5] = ELISA binding to non-CDIM antigen LPS; conditions: maximal reaction (OD450 nm), IgM at 10 μg/ml
Experimental: as §1

Human pro-B NALM-6 cells = experiment: Human complement dependent cytotoxicity (CDC) assay, CCK8; assay type: cell-based; conditions: Nalm-6 cells with human complement, 24 hours, supernatant containing expressed antibody
From the text: “Complement-dependent cytotoxicity” or “CDC” refers to the lysis of a target cell in the presence of complement. Activation of the classical complement pathway is initiated by the binding of the first component of the complement system (CIq) to antibodies, which are bound to their cognate antigen. To assess complement activation, a CDC assay, as described in Hinton et al, J. Immunol. 2006 Jan. 1; 176(1):346-56, may be performed. Briefly, this example describes how the cytotoxicity of the CDIM binding proteins was investigated. Human pro-B NALM-6 cells (50,000) were plated in a 96-well flat bottom microtiter plate. […] After 24 hours, a colorimetric substrate CCK8 was added for 3 hours and then the optical density (OD) was measured at 450 nm wavelength on a Microtiter Plate Reader. Quantification of the increase in OD is directly proportional to viable proliferating NALM-6 cells. […] The IC50 was calculated for each antibody using the same approach as described above.
TABLE 2 summarizes the data shown in FIG. 6 and FIGS. 7A-7F for the CDIM binding proteins comprising variable heavy chains H1, H2, H3, H4, H5, H6, H7, H9, H10, H11, H12, H13, H14, H15, H16, H17, H18, H19, H20, and H21, respectively. The ELISA value refers to the concentration of IgM determined in the conditioned media following transient transfection of IgM heavy and light chains. […]

B1: hm216: naturally occurring human monoclonal IgM CDIM binding antibody (SEQ ID NO: 108), used as experimental reference antibody (protein)
chain: QVQLQQWGAGLLKPSETLSLTCAVYGGSFSGYYWSWIRQPPGKGLEWIGEINHSGSTNYNPSLKSRVTISVDTSKNQFSLKLSSVTAADTAVYYCARARTARGSSIFDYWGQGTLVTVSSGSASAPTLFPLVSCENSPSDTSSVAVGCLAQDFLPDSITFSWKYKNNSDISSTRGFPSVLRGGKYAATSQVLLPSKDVMQGTDEHVVCKVQHPNGNKEKNVPLPVIAELPPKVSVFVPPRDGFFGNPRKSKLICQATGFSPRQIQVSWLREGKQVGSGVTTDQVQAEAKESGPTTYKVTSTLTIKESDWLSQSMFTCRVDHRGLTFQQNASSMCVPDQDTAIRVFAIPPSFASIFLTKSTKLTCLVTDLTTYDSVTISWTRQNGEAVKTHTNISESHPNATFSAVGEASICEDDWNSGERFTCTVTHTDLPSPLKQTISRPKGVALHRPDVYLLPPAREQLNLRESATITCLVTGFSPADVFVQWMQRGQPLSPEKYVTSAPMPEPQAPGRYFAHSILTVSEEEWNTGETYTCVVAHEALPNRVTERTVDKSTGKPTLYNVSLVMSDTAGTCY
ds DNA relative reactivity (ds DNA): ++++ (The (+), (++), (+++) and (++++) scores are given for maximal ELISA values of 0.3 to 1, 1 to 2, 2 to 3 and above 3, respectively)
Binding to antigens other than CDIM [1]: binds to all the antigens tested; also recorded: binds to all of the antigens across a broad dose range
ss DNA relative reactivity (ss DNA): ++++ (The (+), (++), (+++) and (++++) scores are given for maximal ELISA values of 0.3 to 1, 1 to 2, 2 to 3 and above 3, respectively)
Chondroitin Sulfate relative reactivity [2]: ++++ (The (+), (++), (+++) and (++++) scores are given for maximal ELISA values of 0.3 to 1, 1 to 2, 2 to 3 and above 3, respectively)
Heparan Sulfate relative reactivity [3]: ++++ (The (+), (++), (+++) and (++++) scores are given for maximal ELISA values of 0.3 to 1, 1 to 2, 2 to 3 and above 3, respectively)
Cardiolipin relative reactivity [4]: +++ (The (+), (++), (+++) and (++++) scores are given for maximal ELISA values of 0.3 to 1, 1 to 2, 2 to 3 and above 3, respectively)
LPS relative reactivity [5]: ++++ (The (+), (++), (+++) and (++++) scores are given for maximal ELISA values of 0.3 to 1, 1 to 2, 2 to 3 and above 3, respectively)
Cytotoxicity IC50 (Human pro-B NALM-6 cells): 1.762 µg/mL
